Results: patent publication EP0910659B1, “ANTIBODIES AGAINST A COMPLEX OF CD4 AND A CHEMOKINE RECEPTOR DOMAIN, AND THEIR USE AGAINST HIV INFECTIONS” (United Biomedical, Inc., priority 1996, dated 1997)

Legend:
[1] = target: CD4 on the surface of CD4-expressing cells (host cell antigen complex comprising CD4) (human); assay: cell-based or functional assay
[2] = target: recombinant soluble CD4 (rsCD4) (human); assay: rsCD4 ELISA
[3] = target: CD4 on the surface of CD4-expressing cells (host cell antigen complex comprising CD4) (human); assay: SUP-T cells, biotinylated B4, no competitor
[4] = target: CD4 on the surface of CD4-expressing cells (host cell antigen complex comprising CD4) (human); assay: HPB-ALL cells pre-incubated with MAb 10 µg/mL; competitor biotinylated B4
[5] = target: CD4 on the surface of CD4-expressing cells (host cell antigen complex comprising CD4) (human); assay: HPB-ALL cells, biotinylated B4 0.71 µg/mL, no competitor
[6] = target: recombinant soluble CD4 (rsCD4) (human); assay: competition ELISA, rsCD4 wells pretreated with p1624a; MAb 50 µg/mL; competitor B4-HRP 50 µg/mL
[7] = target: CD4 on the surface of CD4-expressing cells (host cell antigen complex comprising CD4) (human); assay: HPB-ALL cells pre-incubated with MAb 50 µg/mL, then gp120-FITC (competitor)
[8] = target: rsCD4 preincubated with CC-CKR3 domain 4 peptide p2082a (human) (UniProt P51677); assay: ELISA, rsCD4 0.25 µg/mL preincubated with peptide, B4 0.1 µg/mL; against rsCD4 alone
[9] = target: rsCD4 preincubated with CC-CKR2b domain 3 peptide p2088a (human) (UniProt P41597); assay: as above
rsCD4 preincubated with CC-CKR2b domain 3 peptide p2088a (human), sequence (P41597 182-207, form in doubt): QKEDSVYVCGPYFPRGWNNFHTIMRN

[10] = target: rsCD4 preincubated with CC-CKR2b domain 2 peptide p2087a (human) (UniProt P41597); assay: as above
[11] = target: rsCD4 preincubated with CC-CKR5 domain 3 peptide p2047a (human) (UniProt P51681); assay: as above
rsCD4 preincubated with CC-CKR5 domain 3 peptide p2047a (human), sequence (P51681 168-199, form in doubt): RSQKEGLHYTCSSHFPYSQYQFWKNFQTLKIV

[12] = target: CD4 on the surface of CD4-expressing cells (host cell antigen complex comprising CD4) (human); assay: indirect immunofluorescence, HPB-ALL cells
[13] = target: CD4 on the surface of CD4-expressing cells (host cell antigen complex comprising CD4) (human); assay: HPB-ALL cells, biotinylated B4 1:1000 + FITC-avidin, no competitor
[14] = target: rsCD4 preincubated with CC-CKR5 domain 3 peptide p2047a (human) (UniProt P51681); assay: ratio of the rsCD4 IC50 values of the two ELISA inhibition assays
[15] = target: recombinant soluble CD4 (rsCD4) (human); assay: rsCD4 ELISA, purified B4 2 µg/mL, no competitor
[16] = target: CD4 on the surface of CD4-expressing cells (host cell antigen complex comprising CD4) (human); assay: indirect immunofluorescence, HPB-ALL cells pre-incubated with gp120 (competitor)
[17] = target: recombinant soluble CD4 (rsCD4) (human); assay: direct ELISA, rsCD4 wells pretreated with p1624a; B4-HRP 50 µg/mL, PBS instead of competitor
[18] = target: recombinant soluble CD4 (rsCD4) (human); assay: ELISA, rsCD4-coated wells
[19] = target: rsCD4 preincubated with CC-CKR5 domain 3 peptide p2047a (human) (UniProt P51681); assay: ELISA, rsCD4/CC-CKR5-D3 coated wells

## monoclonal antibody B4
[1]
  50% Inhbt., HIV-1 primary isolate 23135, MT-2 Microplaque Neutralization Assay: 0.21 µg/mL
  50% Inhbt., HIV-1 primary isolate BR014, MT-2 Microplaque Neutralization Assay: 0.19 µg/mL
  50% end point for neutralization of HIV-1 primary isolate (23135): 0.21 µg/mL
  90% Inhbt., HIV-1 primary isolate 23135, MT-2 Microplaque Neutralization Assay: 1.54 µg/mL
  90% Inhbt., HIV-1 primary isolate BR014, MT-2 Microplaque Neutralization Assay: 1.63 µg/mL
  HIV-1 DH-12 (chimp PBL-grown), PBMC Infection Reduction Assay: 3 logs killed
  HIV-1 DH-12, 50% Inhib, MT-2 Microplaque Assay: 0.33 µg/mL
  HIV-1 DH-12, 90% Inhib, MT-2 Microplaque Assay: 2.1 µg/mL
  HIV-2 287, PBMC Infectivity Reduction Assay with MAb B4 at 10 µg/mL: 1.5 logs killed
  HIV-2 ROD, 50%, MT2 Microplaque Neutralization Assay: 0.7 µg/mL
  HIV-2 ROD, 90%, MT2 Microplaque Neutralization Assay: 8.5 µg/mL
  SHIV 89.6, 50%, p27 Antigen Neutralization Assay: 0.088 µg/mL
  SHIV IIIB, 50%, p27 Antigen Neutralization Assay: 0.679 µg/mL
  SIV239, 50%, p27 Antigen Neutralization Assay: 1.3 µg/mL
  SIV251 (huPBMC), 80%, p27 Antigen Neutralization Assay: 1 µg/mL
  SIV251, 50%, p27 Antigen Neutralization Assay: 2 µg/mL
[2]
  A492 nm reactivity to rsCD4: 1.42 A492
[3]
  positive rate: 95%
[4]
  % Positive cells (biotinylated B4 staining): 0%
  Intensity of staining (biotinylated B4): 0
[5]
  % Positive cells: > 95%
[6]
  % Inhibition: 80%
  A492 nm (B4-HRP signal): 0.338 A492
[7]
  % of cells stained by gp120-FITC after prior binding with MAb: 0%
[8]
  degree of enhancement of MAb B4-rsCD4 binding (grade 0 to 8): 8 +
[9]
  degree of enhancement of MAb B4-rsCD4 binding (grade 0 to 8): > 4 +
[10]
  degree of enhancement of MAb B4-rsCD4 binding (grade 0 to 8): > 4 +
[11]
  degree of enhancement of MAb B4-rsCD4 binding (grade 0 to 8): 5 +
[12]
  % of HPB-ALL cells reactive: > 90%
[13]
  % Positive cells: > 95%
  Intensity of staining: 2
[14]
  fold improvement of affinity over MAb B4 for rsCD4 alone: 15 fold
[15]
  A492 nm: 0.679 A492
[16]
  % of cells reactive after prior binding of gp120: > 90%
[17]
  A492 nm: 1.66 A492
[18]
  endpoint binding concentration (OD492nm reading of 1.0): 2 µg/mL
[19]
  endpoint binding concentration (OD492nm reading of 1.0): 0.1 µg/mL
